Experiments:
Experiment in all cases: non-reducing SDS-PAGE with Western blot
[1] = biological target: soluble truncated gp120 from the CRF02_AG isolate (Sgp120t-AG) (HIV-1 clade CRF02_AG)
[2] = biological target: truncated gp120 from the HIV-1 clade B isolate (gp120t-B) (HIV-1 clade B)
[3] = biological target: truncated gp120 from the HIV-1 clade C isolate (gp120t-C) (HIV-1 clade C)
[4] = biological target: truncated gp120 from the HIV-1 clade J isolate (gp120t-J) (HIV-1 clade J)

**Q.** For “soluble truncated gp120 from the CRF02_AG isolate (Sgp120t-AG) (domain or fragment)”, which stoichiometry N [1] is on record?
**A.** Its stoichiometry N is 2.

**Q.** “truncated gp120 from the HIV-1 clade B isolate (gp120t-B) (domain or fragment)” was tested. Which stoichiometry N [2] did it give?
**A.** Its stoichiometry N is 2.

**Q.** Which stoichiometry N [3] does the source give for “truncated gp120 from the HIV-1 clade C isolate (gp120t-C) (domain or fragment)” here?
**A.** The stoichiometry N was 2.

**Q.** With “truncated gp120 from the HIV-1 clade J isolate (gp120t-J) (domain or fragment)” as the substance, how does the stoichiometry N [4] read?
**A.** Its stoichiometry N is 2.

— publication PMC7349027
